According to the supplement of paper PMC9112550, “Optimization of the antimicrobial peptide Bac7 by deep mutational scanning” (BMC Biology, 2022):

The sequences below were run on Escherichia coli TOP10 (assay: shrunken log2 fold change of peptide-encoding DNA abundance (4.5 h post-induction vs induction); higher = less antimicrobial activity (less host growth inhibition)). Conditions: time post-induction: 4.5 h; library: site-saturation at positions 5, 18, 19, 20.
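Note: peptides expressed intracellularly from a pBAD plasmid library in pooled LB shake-flask culture, induced with 0.3% L-arabinose, DNA abundance read by NGS, three biological replicates, DESeq2 with apeglm shrinkage.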

Sequence | shrunken log2 fold change
RRIRDRPPRLPRPRPRPACVPRP | 0.337
RRIRARPPRLPRPRPRPCEVPRP | 3.46
RRIRARPPRLPRPRPRPMDVPRP | 0.241
RRIRERPPRLPRPRPRPHELPRP | -0.0556
RRIRNRPPRLPRPRPRPSFFPRP | -0.367
RRIRARPPRLPRPRPRPTTNPRP | 0.389
RRIRYRPPRLPRPRPRPWPHPRP | 0.0143
RRIRHRPPRLPRPRPRPPWYPRP | -0.232
RRIRFRPPRLPRPRPRPMCTPRP | 0.0284
RRIRKRPPRLPRPRPRPCFHPRP | -0.125
RRIRTRPPRLPRPRPRPTTMPRP | -0.109
RRIRRRPPRLPRPRPRPSHTPRP | 0.278
RRIRYRPPRLPRPRPRPCCFPRP | -0.709
RRIRPRPPRLPRPRPRPIHGPRP | -0.00809
RRIRWRPPRLPRPRPRPKMPPRP | 1.71
RRIRMRPPRLPRPRPRPLMTPRP | 1.3
RRIRVRPPRLPRPRPRPKCVPRP | -0.0921
RRIRRRPPRLPRPRPRPNNGPRP | -0.277
RRIRARPPRLPRPRPRPEDLPRP | 0.0217
RRIRHRPPRLPRPRPRPQEMPRP | -0.0755
RRIRPRPPRLPRPRPRPLEKPRP | 0.261
RRIRYRPPRLPRPRPRPDTRPRP | -0.153
RRIRPRPPRLPRPRPRPLIWPRP | 0.0601
RRIRFRPPRLPRPRPRPQYVPRP | -0.368
RRIRRRPPRLPRPRPRPGVPPRP | 0.264

Sequence | shrunken log2 fold change
RRIRPRPPRLPRPRPRPMTWPRP | -0.00489
RRIRWRPPRLPRPRPRPVPNPRP | 0.0838
RRIRSRPPRLPRPRPRPNSIPRP | -0.861
RRIRFRPPRLPRPRPRPHEIPRP | -0.0536
RRIRTRPPRLPRPRPRPNSNPRP | -0.716
RRIRTRPPRLPRPRPRPEMQPRP | -0.00136
RRIRHRPPRLPRPRPRPHFRPRP | 0.00253
RRIRPRPPRLPRPRPRPQLTPRP | -0.221
RRIRIRPPRLPRPRPRPNMYPRP | -0.59
RRIRLRPPRLPRPRPRPQNTPRP | -0.42
RRIRFRPPRLPRPRPRPDYEPRP | -0.407
RRIRARPPRLPRPRPRPFMGPRP | -0.255
RRIRQRPPRLPRPRPRPPNWPRP | 0.358
RRIRYRPPRLPRPRPRPMLFPRP | -0.347
RRIRTRPPRLPRPRPRPWPKPRP | 0.218
RRIRYRPPRLPRPRPRPRFHPRP | -0.939
RRIRDRPPRLPRPRPRPCKKPRP | -0.00395
RRIRFRPPRLPRPRPRPFFFPRP | 0.121
RRIRIRPPRLPRPRPRPWNNPRP | -0.89
RRIRFRPPRLPRPRPRPWYKPRP | -0.145
RRIRLRPPRLPRPRPRPCWMPRP | -0.168
RRIRDRPPRLPRPRPRPCRNPRP | -0.000921
RRIRNRPPRLPRPRPRPTLKPRP | 0.0241
RRIRQRPPRLPRPRPRPQINPRP | -0.285
RRIRPRPPRLPRPRPRPLDRPRP | -0.000978

Sequence | shrunken log2 fold change
RRIRVRPPRLPRPRPRPFWQPRP | 0.181
RRIRARPPRLPRPRPRPSWRPRP | 0.263
RRIRSRPPRLPRPRPRPAMRPRP | 0.588
RRIRWRPPRLPRPRPRPNWQPRP | -0.0101
RRIRWRPPRLPRPRPRPIIEPRP | -0.273
RRIRWRPPRLPRPRPRPQQTPRP | 0.103
RRIRHRPPRLPRPRPRPQFVPRP | -0.163
RRIRGRPPRLPRPRPRPCWFPRP | 0.584
RRIRFRPPRLPRPRPRPARRPRP | 0.435
RRIRERPPRLPRPRPRPRIGPRP | -0.0649
RRIRSRPPRLPRPRPRPVGYPRP | 0.093
RRIRIRPPRLPRPRPRPMINPRP | -0.714
RRIRRRPPRLPRPRPRPEVHPRP | 0.648
RRIRPRPPRLPRPRPRPYGVPRP | -0.157
RRIRLRPPRLPRPRPRPRFDPRP | -0.053
RRIRWRPPRLPRPRPRPEQQPRP | 1.39
RRIRNRPPRLPRPRPRPAHSPRP | 0.111
RRIRARPPRLPRPRPRPDDWPRP | 1.12
RRIRWRPPRLPRPRPRPGVDPRP | 0.371
RRIRERPPRLPRPRPRPRFTPRP | 1.87
RRIRGRPPRLPRPRPRPLTAPRP | 0.998
RRIRMRPPRLPRPRPRPLILPRP | -0.429
RRIRNRPPRLPRPRPRPETRPRP | 0.254
RRIRNRPPRLPRPRPRPQQPPRP | 0.0468
RRIRKRPPRLPRPRPRPASWPRP | 0.625

Sequence | shrunken log2 fold change
RRIRWRPPRLPRPRPRPDVSPRP | 0.265
RRIRLRPPRLPRPRPRPMPPPRP | 0.15
RRIRHRPPRLPRPRPRPDWNPRP | -0.207
RRIRSRPPRLPRPRPRPKTWPRP | -0.0488
RRIRHRPPRLPRPRPRPMYDPRP | 0.0149
RRIRERPPRLPRPRPRPPLIPRP | -0.435
RRIRSRPPRLPRPRPRPRHLPRP | -0.319
RRIRYRPPRLPRPRPRPKDRPRP | -0.109
RRIRVRPPRLPRPRPRPWWNPRP | -0.0063
RRIRHRPPRLPRPRPRPTGTPRP | -0.0618
RRIRHRPPRLPRPRPRPDPWPRP | 0.0282
RRIRLRPPRLPRPRPRPIFYPRP | -0.223
RRIRFRPPRLPRPRPRPFCYPRP | -0.372
RRIRFRPPRLPRPRPRPLDHPRP | -0.359
RRIRGRPPRLPRPRPRPEWRPRP | 1.15
RRIRVRPPRLPRPRPRPNGFPRP | -0.0486
RRIRQRPPRLPRPRPRPEHFPRP | 0.0746
RRIRPRPPRLPRPRPRPSPQPRP | 0.2
RRIRLRPPRLPRPRPRPTMCPRP | -0.0109
RRIRQRPPRLPRPRPRPNNMPRP | -0.378
RRIRMRPPRLPRPRPRPTSIPRP | -0.0517
RRIRGRPPRLPRPRPRPCMAPRP | 0.703
RRIRYRPPRLPRPRPRPHAYPRP | -0.0226
RRIRARPPRLPRPRPRPFWHPRP | 0.165
RRIRYRPPRLPRPRPRPLFWPRP | -0.214

Sequence | shrunken log2 fold change
RRIRSRPPRLPRPRPRPKICPRP | -0.0675
RRIRDRPPRLPRPRPRPGDLPRP | 0.178
RRIRPRPPRLPRPRPRPEYKPRP | -0.293
RRIRPRPPRLPRPRPRPMIRPRP | 0.339
RRIRERPPRLPRPRPRPYACPRP | -0.0634
RRIRRRPPRLPRPRPRPEDAPRP | 0.582
RRIRPRPPRLPRPRPRPKTEPRP | -0.217
RRIRWRPPRLPRPRPRPSKAPRP | -0.287
RRIRWRPPRLPRPRPRPPRYPRP | 0.374
RRIRNRPPRLPRPRPRPNQAPRP | -0.0207
RRIRQRPPRLPRPRPRPKYHPRP | -0.171
RRIRYRPPRLPRPRPRPNFHPRP | -0.612
RRIRLRPPRLPRPRPRPEGRPRP | 1.11
RRIRRRPPRLPRPRPRPPSSPRP | 0.303
RRIRPRPPRLPRPRPRPETMPRP | 0.00383
RRIRYRPPRLPRPRPRPDCIPRP | -0.501
RRIRARPPRLPRPRPRPRNPPRP | 0.225
RRIRCRPPRLPRPRPRPSFTPRP | -0.668
RRIRFRPPRLPRPRPRPIFIPRP | -0.777
RRIRYRPPRLPRPRPRPMTNPRP | -1.55
RRIRERPPRLPRPRPRPENGPRP | -0.025
RRIRFRPPRLPRPRPRPGANPRP | -0.0673
RRIRKRPPRLPRPRPRPEDPPRP | 2.99
RRIRFRPPRLPRPRPRPKLQPRP | -0.0358
RRIRIRPPRLPRPRPRPEEVPRP | -0.00172

Sequence | shrunken log2 fold change
RRIRWRPPRLPRPRPRPMRPPRP | 1.15
RRIRSRPPRLPRPRPRPMAVPRP | -0.000652
RRIRYRPPRLPRPRPRPGHLPRP | -0.0798
RRIRVRPPRLPRPRPRPTMEPRP | -0.102
RRIRPRPPRLPRPRPRPEANPRP | 0.473
RRIRGRPPRLPRPRPRPQNFPRP | 0.136
RRIRLRPPRLPRPRPRPGFLPRP | 0.0856
RRIRERPPRLPRPRPRPPGKPRP | 0.28
RRIRMRPPRLPRPRPRPGHDPRP | 0.0618
RRIRVRPPRLPRPRPRPVRAPRP | 0.616
RRIRFRPPRLPRPRPRPADPPRP | 0.109
RRIRQRPPRLPRPRPRPCDKPRP | 0.244
RRIRVRPPRLPRPRPRPWVYPRP | -0.137
RRIRYRPPRLPRPRPRPHSAPRP | -0.121
RRIRVRPPRLPRPRPRPMMSPRP | 0.00438
RRIRGRPPRLPRPRPRPMFPPRP | 0.193
RRIRSRPPRLPRPRPRPSDQPRP | -0.127
RRIRSRPPRLPRPRPRPFKTPRP | -0.0323
RRIRVRPPRLPRPRPRPQGRPRP | -0.0469
RRIRSRPPRLPRPRPRPTMRPRP | 0.881
RRIRCRPPRLPRPRPRPSWNPRP | -0.68
RRIRPRPPRLPRPRPRPVGTPRP | 0.1
RRIRWRPPRLPRPRPRPEVCPRP | 0.000572
RRIRLRPPRLPRPRPRPNMEPRP | 0.116
RRIRKRPPRLPRPRPRPVQKPRP | 0.242
